Data taken from PMC4306524 (Molecular Cell, 2015).

T1: Bacillus subtilis Smc protein (Bacillus subtilis, UniProt P51834 1-1186)
T1 sequence (looked up): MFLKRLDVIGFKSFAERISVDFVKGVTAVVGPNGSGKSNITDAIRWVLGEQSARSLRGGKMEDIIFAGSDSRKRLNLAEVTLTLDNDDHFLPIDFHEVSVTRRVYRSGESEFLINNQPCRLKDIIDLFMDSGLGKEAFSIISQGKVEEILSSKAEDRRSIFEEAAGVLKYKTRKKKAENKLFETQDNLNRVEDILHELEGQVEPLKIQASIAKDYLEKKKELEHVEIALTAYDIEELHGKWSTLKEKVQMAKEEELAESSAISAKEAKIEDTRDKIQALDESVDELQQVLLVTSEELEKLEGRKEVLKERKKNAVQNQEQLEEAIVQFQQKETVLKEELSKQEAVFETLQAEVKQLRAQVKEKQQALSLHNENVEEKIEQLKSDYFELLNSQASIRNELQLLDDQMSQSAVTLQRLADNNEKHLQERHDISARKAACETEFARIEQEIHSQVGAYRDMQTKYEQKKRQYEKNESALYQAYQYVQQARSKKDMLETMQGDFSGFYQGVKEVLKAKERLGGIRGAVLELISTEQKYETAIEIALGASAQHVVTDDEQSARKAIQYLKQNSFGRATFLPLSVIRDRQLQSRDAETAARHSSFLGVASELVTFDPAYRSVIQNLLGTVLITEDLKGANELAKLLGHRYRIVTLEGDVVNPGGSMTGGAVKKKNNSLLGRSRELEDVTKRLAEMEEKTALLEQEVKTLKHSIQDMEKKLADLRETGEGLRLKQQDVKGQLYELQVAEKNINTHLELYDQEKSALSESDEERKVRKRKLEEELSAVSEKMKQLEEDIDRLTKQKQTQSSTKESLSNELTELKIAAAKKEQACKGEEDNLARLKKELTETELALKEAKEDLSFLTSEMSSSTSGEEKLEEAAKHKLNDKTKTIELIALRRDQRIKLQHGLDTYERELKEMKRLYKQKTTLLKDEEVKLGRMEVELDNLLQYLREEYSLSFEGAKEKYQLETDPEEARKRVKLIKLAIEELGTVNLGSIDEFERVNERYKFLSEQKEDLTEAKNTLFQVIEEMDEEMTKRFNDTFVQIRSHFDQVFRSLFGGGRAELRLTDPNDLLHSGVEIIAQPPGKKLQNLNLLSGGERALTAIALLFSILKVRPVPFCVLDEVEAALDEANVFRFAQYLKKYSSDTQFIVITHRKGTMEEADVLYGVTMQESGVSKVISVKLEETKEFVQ

T2: ScSmc2H-CC110;ScSmc4H-CC110 (Saccharomyces cerevisiae?;Saccharomyces …, UniProt P38989;Q12267 396-792;555-951, |)
T2 sequence 1: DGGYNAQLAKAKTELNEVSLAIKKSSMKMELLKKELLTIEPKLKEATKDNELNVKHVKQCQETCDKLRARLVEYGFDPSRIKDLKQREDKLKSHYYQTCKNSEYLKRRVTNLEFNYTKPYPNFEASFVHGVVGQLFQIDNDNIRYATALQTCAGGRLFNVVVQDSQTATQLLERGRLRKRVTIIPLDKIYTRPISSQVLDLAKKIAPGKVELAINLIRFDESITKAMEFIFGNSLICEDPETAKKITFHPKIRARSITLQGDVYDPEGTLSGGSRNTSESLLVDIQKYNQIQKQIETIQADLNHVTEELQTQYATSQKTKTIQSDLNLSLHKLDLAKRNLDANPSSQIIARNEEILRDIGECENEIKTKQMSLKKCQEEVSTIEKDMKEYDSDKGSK
T2 sequence 2: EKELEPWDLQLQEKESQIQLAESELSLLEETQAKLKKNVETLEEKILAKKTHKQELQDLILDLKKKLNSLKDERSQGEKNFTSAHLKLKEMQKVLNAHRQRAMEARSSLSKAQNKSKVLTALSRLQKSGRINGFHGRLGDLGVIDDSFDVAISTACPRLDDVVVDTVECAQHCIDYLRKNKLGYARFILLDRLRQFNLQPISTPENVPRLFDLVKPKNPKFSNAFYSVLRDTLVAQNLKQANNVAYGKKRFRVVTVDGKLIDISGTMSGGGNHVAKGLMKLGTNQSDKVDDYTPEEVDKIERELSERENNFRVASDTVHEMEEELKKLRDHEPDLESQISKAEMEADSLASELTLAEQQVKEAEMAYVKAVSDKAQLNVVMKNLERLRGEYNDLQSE

T3: Bs Smc (Bacillus subtilis, UniProt P51834 1-1186)
T3 sequence: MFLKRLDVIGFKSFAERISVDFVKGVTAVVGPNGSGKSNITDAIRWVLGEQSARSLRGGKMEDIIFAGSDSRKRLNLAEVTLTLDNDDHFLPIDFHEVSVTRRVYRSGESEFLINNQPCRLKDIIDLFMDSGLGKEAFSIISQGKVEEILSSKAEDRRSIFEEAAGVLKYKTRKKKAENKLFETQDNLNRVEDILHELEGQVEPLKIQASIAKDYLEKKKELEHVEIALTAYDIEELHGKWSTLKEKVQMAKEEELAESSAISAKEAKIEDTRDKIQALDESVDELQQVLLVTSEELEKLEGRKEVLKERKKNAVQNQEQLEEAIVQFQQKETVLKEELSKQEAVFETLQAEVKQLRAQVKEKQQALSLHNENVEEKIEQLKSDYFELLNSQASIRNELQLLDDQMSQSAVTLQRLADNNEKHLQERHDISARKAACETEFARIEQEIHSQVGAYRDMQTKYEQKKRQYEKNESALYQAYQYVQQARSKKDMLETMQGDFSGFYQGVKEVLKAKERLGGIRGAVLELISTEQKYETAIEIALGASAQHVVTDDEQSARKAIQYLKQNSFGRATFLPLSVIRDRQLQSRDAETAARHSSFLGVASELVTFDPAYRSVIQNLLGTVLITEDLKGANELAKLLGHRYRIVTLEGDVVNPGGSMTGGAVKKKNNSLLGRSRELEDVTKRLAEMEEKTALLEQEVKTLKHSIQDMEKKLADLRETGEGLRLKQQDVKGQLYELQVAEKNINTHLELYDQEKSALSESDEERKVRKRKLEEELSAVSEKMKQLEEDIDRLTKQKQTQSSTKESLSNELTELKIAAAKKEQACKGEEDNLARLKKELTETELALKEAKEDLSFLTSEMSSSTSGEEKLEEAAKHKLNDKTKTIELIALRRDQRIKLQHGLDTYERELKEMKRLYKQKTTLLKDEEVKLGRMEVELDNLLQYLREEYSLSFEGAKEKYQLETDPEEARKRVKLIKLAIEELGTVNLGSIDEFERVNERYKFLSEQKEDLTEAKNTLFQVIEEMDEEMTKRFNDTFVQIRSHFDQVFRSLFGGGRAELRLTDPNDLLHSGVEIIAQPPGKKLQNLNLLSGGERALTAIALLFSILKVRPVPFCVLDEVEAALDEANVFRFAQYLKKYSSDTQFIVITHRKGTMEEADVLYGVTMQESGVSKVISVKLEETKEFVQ

T4: BsSmcH-CC8 (Bacillus subtilis, UniProt P51834 489-680)
T4 sequence: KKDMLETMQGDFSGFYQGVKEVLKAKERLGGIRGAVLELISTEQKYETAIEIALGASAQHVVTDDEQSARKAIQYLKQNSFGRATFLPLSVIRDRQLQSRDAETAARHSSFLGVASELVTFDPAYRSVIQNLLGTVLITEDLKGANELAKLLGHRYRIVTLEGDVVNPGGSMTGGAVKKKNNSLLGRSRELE

T5: BsSmcH (Bacillus subtilis, UniProt P51834 498-665)
T5 sequence: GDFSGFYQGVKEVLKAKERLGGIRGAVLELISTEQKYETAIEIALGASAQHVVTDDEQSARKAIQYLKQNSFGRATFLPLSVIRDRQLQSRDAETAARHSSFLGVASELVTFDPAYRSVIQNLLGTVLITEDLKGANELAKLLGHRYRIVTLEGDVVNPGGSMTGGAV

T6: BsSmcH-CC100 (Bacillus subtilis, UniProt P51834 400-776)
T6 sequence: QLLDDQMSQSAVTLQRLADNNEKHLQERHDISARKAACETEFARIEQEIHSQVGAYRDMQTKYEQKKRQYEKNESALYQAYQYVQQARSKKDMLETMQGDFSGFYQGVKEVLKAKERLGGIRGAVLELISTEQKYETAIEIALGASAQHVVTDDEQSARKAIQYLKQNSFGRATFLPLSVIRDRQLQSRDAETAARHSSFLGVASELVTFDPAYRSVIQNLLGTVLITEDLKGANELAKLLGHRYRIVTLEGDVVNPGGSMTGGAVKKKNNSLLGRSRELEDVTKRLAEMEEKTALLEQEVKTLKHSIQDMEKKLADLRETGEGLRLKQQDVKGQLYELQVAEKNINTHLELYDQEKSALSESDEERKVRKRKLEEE

B1: Bacillus subtilis ScpA (natural protein, UniProt P35154 1-251, looked up)
chain: MEEYQVKIDTFEGPLDLLLHLINRLEIDIYDIPVAKITEQYLLYVHTMRVLELDIASEYLVMAATLLSIKSRMLLPKQEEELFEDELLEEEDPREELIEKLIEYRKYKDAAKDLKEREEERQKSFTKPPSDLSEYAKEVKQSEQKLSVTVYDMIGAFQKVLKRKKINRPMETTITRQDIPIEARMNEIVHSLKSRGTRINFMDLFPYEQKEHLVVTFLAVLELMKNQLVLIEQEHNFSDIYITGSESIHGA

Key:
[1] = biological target: T1, Bacillus subtilis Smc protein; assay: SEC-MALS
Bacillus subtilis ScpA = biological target: B1; assay: SEC-MALS
SEC-MALS = biological target: the molecule itself; assay: SEC-MALS
[2] = biological target: T2, ScSmc2H-CC110;ScSmc4H-CC110; assay: fluorescence anisotropy
Bs Smc = biological target: T3, Bs Smc; assay: fluorescence anisotropy
BsSmcH-CC8 = biological target: T4, BsSmcH-CC8; assay: fluorescence anisotropy
BsSmcH = biological target: T5, BsSmcH; assay: fluorescence anisotropy
BsSmcH-CC100 = biological target: T6, BsSmcH-CC100; assay: fluorescence anisotropy

Row | Binder | binding result [1] | binding result (Bacillus subtilis ScpA) | binding result (SEC-MALS) | Kd [2] [nM] | Kd (Bs Smc) [nM] | Kd (BsSmcH-CC8) [nM] | binding result (BsSmcH) | Kd (BsSmcH-CC100) [nM]
1 | B1 | binds |  |  |  |  |  |  | 
2 | Bacillus subtilis ScpB (natural protein, UniProt P35155 1-197, looked up) MGLDIVNWKAIVEALLYAAGDEGLTKKQLLTVLEIEEPELNTIMADVADEYRGDTRGIELIEYADTYMLSTKKDFAPYLKKLIEVPSKGLSQASLEVLAIVSYKQPITRAEIEEIRGVKSERILHSLVAKALLCEVGRADGPGRAILYGTTPTFLEQFGLKTLDELPPLPENAEEDVLQEEADLFFENFNQTFEDIK | binds | binds | binds |  |  |  |  | 
3 | ds40 (dsDNA) DNA 1: TTAGTTGTTCGTAGTGCTCGTCTGGCTCTGGATTACCCGC DNA 2: GCGGGTAATCCAGAGCCAGACGAGCACTACGAACAACTAA |  |  |  | ~50 | ~100 | ~200 | no binding | ~100
